The values that follow come from article doi:10.1101/481754, “Tumor Protein D54 is a promiscuous Rab effector” (bioRxiv, 2018).

The assay concerns the target T1, MBP-TPD54-His (human, UniProt O43399 1-206).
T1 construct: human Tumor protein D54 (TPD54/TPD52L2) inserted in the pMalPre-His vector; also called recombinant MBP-TPD54-His; source: E. coli BL21, purified (HisTrap); not shown: MBP, N-terminal, kept; His, C-terminal, kept
Kind of assay: pull-down; 3 µM GST, GST-Rab1a or GST-Rab6a pre-loaded with 300 µM GppNHp, incubated with 3 µM MBP-TPD54-His 90 min at 20 °C in 25 mM HEPES, 150 mM KCl, 5 mM MgCl2 pH 7.4; glutathione-sepharose beads; Coomassie gel. To be noted: both partners purified.

T1 sequence (O43399 whole entry): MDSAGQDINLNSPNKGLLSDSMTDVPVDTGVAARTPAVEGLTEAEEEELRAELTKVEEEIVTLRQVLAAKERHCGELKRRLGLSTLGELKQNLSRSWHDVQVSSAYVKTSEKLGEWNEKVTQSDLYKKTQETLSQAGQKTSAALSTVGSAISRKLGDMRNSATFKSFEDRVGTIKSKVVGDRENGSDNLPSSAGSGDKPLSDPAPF

B1: GST-Rab1a (natural protein)
chain: not shown
notes: human Rab1a, cut from GFP-Rab1a and inserted into pGEX-6P1; pre-loaded with GDP or GppNHp; source: E. coli BL21, purified (GSTrap); not shown: GST, N-terminal, kept
B1: the binding result is on record as “binds”.
